Substitutions are numbered along the chain they refer to. Where two headings read alike, the source gives them in different places.
B1: HCV 208A-983 (antibody, V domains shown)
VH: QGQMQQSGAELVKPGASVKLSCKTSGFTFSSSYFSWLKQKPGQSLEWIAWIYAGTGNTIYNQKFTDKAQLTVDTASSTAFMQLSSLTIEDSAIYYCAISGTGFTYWGQGTLVTVSA
VL: DVLMTQTPLSLPVNLGDQASISCRSSQSLLHSNGNTYLEWFLQKPGQSPKLLIYNVSNRFSGVPDRFSGSGSGTDFTLKISRVEAEDLGVYYCFQGSHVPFTFGSGTKLAIKR
B2: HCV 208B-471 (antibody, V domains shown)
VH: QGQLQQSGPVLVKPGASEILYCKTSGFTFSSTYISWLKQKPGQSLEWIAWIYAGTGATNYNQKFTGKAQLTVDASSNTAYMHFSGLTPEDSAIYYCAISGAGVYWGQGTLVTVSA
VL: B1 VL with L3V, N14S, F41Y, K50N, T77A, E84G, F101L, S105A, A110E, I111L
B3: HCV 208A-967 (antibody, V domains shown)
VH: QVQLEESGPGLVAPSQSLSITCTVSGFSLTSYGVHWVRQPPGKGLEWLGVIWAVGSINYNSALMSRLSISKDNSKSQVFLKMNSLRTDDTAMYYCARDRTTATPFFDYWGQGTTLTVSS
VL: DIVLTQSPASLAGSLGKRAPISCKASESVNFFGTNLIHWYQQKPGQPPKLLIYHASNLKTGVPARFRGRGSKTNFPLPIDPVEENDVAIYYCLQNRKIPLTFGVGTKLELKR
B4: HCV 208B-174 (antibody, V domains shown)
VH: EVKLEESGGGLVQPGGSMKLSCVASGFSFSSYWMSWVRQSPEKGLDWVAEIRLRSDNYATHYAESVKGRFTISRDDSISRLYLQMNTLRAEDTGIYYCTWMTYWGQGTLVTVSA
VL: QNVLTQSPAIMSASPGEKVTMSCSASSSVTYMFWYQLKPESSPRLLIYDTSNLASGVPVRFSGSGSGTSYSLTISRMEAEDAATYYCQEWSSYPLTFGAGTKLDLKR

Legend:
[1] = molecular target: T1, HCV Core1-169 (HCV-1), P26664; assay: EIA, core1-169 coated on plate; conditions: remark: other sources report otherwise
T1 chain: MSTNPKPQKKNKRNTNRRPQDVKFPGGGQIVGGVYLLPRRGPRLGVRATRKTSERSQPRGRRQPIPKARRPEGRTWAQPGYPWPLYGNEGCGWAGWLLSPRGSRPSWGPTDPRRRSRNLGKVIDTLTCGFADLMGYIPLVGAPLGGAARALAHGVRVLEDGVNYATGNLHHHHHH

[2] = molecular target: T1, HCV Core1-169 (HCV-1), P26664; assay: EIA, core1-169 captured by mAb 14-153-229; conditions: remark: other sources report otherwise
[3] = molecular target: T2, HCV Core1-169 (hepatitis C virus (HCV-1)), P26664; assay: SPR sandwich, capture mAb C11-9; conditions: remark: other sources report otherwise
T2 chain: T1 chain

[4] = molecular target: T2, HCV Core1-169 (hepatitis C virus …); assay: SPR sandwich, capture mAb C11-14; conditions: remark: other sources report otherwise
[5] = molecular target: T2, HCV Core1-169 (hepatitis C virus …); assay: SPR sandwich, capture mAb C11-7; conditions: remark: other sources report otherwise
[6] = molecular target: T2, HCV Core1-169 (hepatitis C virus …); assay: SPR sandwich, capture mAb C11-3; conditions: remark: other sources report otherwise
HCV Core1-169 (HCV-1) [7] = molecular target: HCV Core1-169 (HCV-1) (UniProt P26664); assay: EIA, core1-169 captured by mAb 14-153-229
[8] = molecular target: HCV Core1-169 (hepatitis C virus (HCV-1)) (UniProt P26664); assay: SPR sandwich, capture mAb C11-9
[9] = molecular target: HCV Core1-169 (hepatitis C virus (HCV-1)) (UniProt P26664); assay: SPR sandwich, capture mAb C11-14
[10] = molecular target: bovine serum albumin (BSA) (bovine) (UniProt P02769); assay: EIA, BSA background
[11] = molecular target: bovine serum albumin (BSA) (bovine) (UniProt P02769); assay: EIA, BSA background; remark: listed apart in the source
[12] = molecular target: bovine serum albumin (bovine) (UniProt P02769); assay: EIA, BSA control
[13] = molecular target: T3, HCV bt-151-171 (Peptide 3, HCVc 151-171) (Hepatitis C virus (numbering per HCV-1)); assay: EIA, captured mAb + biotin peptide
T3 sequence (peptide, biotin (carboxy-terminal per [p-0227]; N-terminal per [p-0050])): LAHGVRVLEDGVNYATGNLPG

[14] = molecular target: T4, HCV bt-141-161 (Peptide 2, HCVc 141-161) (Hepatitis C virus (numbering per HCV-1)); assay: EIA, captured mAb + biotin peptide
T4 sequence (peptide, biotin (carboxy-terminal per [p-0227]; N-terminal per [p-0050])): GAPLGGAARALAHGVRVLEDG

[15] = molecular target: T5, HCV bt-134-154 (Peptide 1, HCVc 134-154) (Hepatitis C virus (numbering per HCV-1)); assay: EIA, captured mAb + biotin peptide
T5 sequence (peptide, biotin (carboxy-terminal per [p-0227]; N-terminal per [p-0050])): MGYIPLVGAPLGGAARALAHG

[16] = molecular target: HCV Core1-169 (hepatitis C virus (HCV-1)) (UniProt P26664); assay: SPR sandwich, capture mAb C11-7
[17] = molecular target: HCV Core1-169 (hepatitis C virus (HCV-1)) (UniProt P26664); assay: SPR sandwich, capture mAb C11-3
HCV Core1-169 (HCV-1) [18] = molecular target: HCV Core1-169 (HCV-1) (UniProt P26664); assay: EIA, core1-169 coated on plate

bovine serum albumin (BSA) (bovine), sequence (P02769 25-607 limits assumed): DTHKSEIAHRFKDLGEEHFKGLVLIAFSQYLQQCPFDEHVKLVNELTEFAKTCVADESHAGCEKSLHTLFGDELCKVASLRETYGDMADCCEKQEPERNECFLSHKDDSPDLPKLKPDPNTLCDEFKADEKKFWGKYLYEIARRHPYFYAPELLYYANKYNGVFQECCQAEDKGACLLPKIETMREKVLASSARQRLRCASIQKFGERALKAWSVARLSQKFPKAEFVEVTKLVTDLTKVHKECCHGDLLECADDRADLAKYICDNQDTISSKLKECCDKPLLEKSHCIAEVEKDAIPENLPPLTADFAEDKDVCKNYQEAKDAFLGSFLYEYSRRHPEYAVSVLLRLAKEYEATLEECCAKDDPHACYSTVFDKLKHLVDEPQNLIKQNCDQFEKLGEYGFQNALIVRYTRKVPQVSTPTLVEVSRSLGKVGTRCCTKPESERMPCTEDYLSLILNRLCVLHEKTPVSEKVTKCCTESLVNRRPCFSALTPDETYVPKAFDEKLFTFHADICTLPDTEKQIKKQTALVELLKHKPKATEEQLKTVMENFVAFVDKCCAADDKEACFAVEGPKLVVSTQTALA
bovine serum albumin (bovine), sequence (P02769 25-607 limits assumed): as above

| Binder | OD (A492) [1] [OD] | OD (A492) [2] [OD] | expected percent binding [3] [%] | expected percent binding [4] [%] | expected percent binding [5] [%] | expected percent binding [6] [%] | OD (A492) (HCV Core1-169 (HCV-1) [7]) [OD] | expected percent binding [8] [%] | expected percent binding [9] [%] | OD (A492) [10] [OD] | OD (A492) [11] [OD] | Reactivity (OD 492 nm) [12] [OD units] | Reactivity (OD 492 nm) [13] [OD units] | Reactivity (OD 492 nm) [14] [OD units] | Reactivity (OD 492 nm) [15] [OD units] | expected percent binding [16] [%] | expected percent binding [17] [%] | OD (A492) (HCV Core1-169 (HCV-1) [18]) [OD] |
| --- | --- | --- | --- | --- | --- | --- | --- | --- | --- | --- | --- | --- | --- | --- | --- | --- | --- | --- |
| B1 | 0.12 | 0.64 | < 1 | < 1 | < 1 | < 1 |  |  |  |  |  |  |  |  |  |  |  |  |
| B2 | 0.24 | 0.35 | < 1 | < 1 | < 1 | < 1 |  |  |  |  |  |  |  |  |  |  |  |  |
| B3 |  |  |  |  |  |  | 0.18 | < 1 | < 1 | 1.3 | 0.15 | 0.07 | 0.18 | 0.73 | 0.52 | < 1 | < 1 | 1.08 |
| B4 | 0.15 | 0.75 | < 1 | 1.6 | 1.5 | 1.6 |  |  |  |  |  |  |  |  |  |  |  |  |

Reference: patent publication US20170052184A1
